Assay [1] deals with biotinylated H3(1-20)K9me2 peptide. As to the kind of experiment: Kme-OPL pulldown fluorescence assay (GST-tagged reader domain). As to conditions: parent: est. 1300; read off a plot.
The target in assay [2] is FAM-TAR(Kme3)STG peptide (H3K9me3). Briefly: fluorescence polarisation; protein serially diluted with 10 nM FAM peptide; 25 mM HEPES pH 7.5, 100 mM NaCl, 0.05% NP-40; anisotropy fitted by specific binding with Hill slope.
In assay [3] the target is FAM-KAK(Kme3)TGK peptide (human). Described as above.
Assay [4] shares this target. Described as above. The source holds these as a separate data set.
Another assay deals with FAM-WAY(Kme3)TGK peptide. Described as above.

Like-named read-outs stand apart in the source and are kept apart here.

M Phase Phosphoprotein 8 chromodomain, sequence (Q99549 55-116): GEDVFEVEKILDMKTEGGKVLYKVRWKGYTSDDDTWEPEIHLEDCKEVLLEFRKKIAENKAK

For “M Phase Phosphoprotein 8 chromodomain (from UniProt Q99549) W80A”, the response (RFU (GST-subtracted fluorescence)) in assay [1] was 150.

For the substance “M Phase Phosphoprotein 8 chromodomain (from UniProt Q99549 55-116) (domain or fragment)”, the dissociation constant Kd in assay [2] was determined as 5400 nM; in assay [3] it was 660 nM; in assay [4], 840 nM. Moreover, the fold tighter than the H3K9me3 peptide in assay [4] turned out to be 10 fold.

In the assay with FAM-WAY(Kme3)TGK peptide, “Chromodomain Y-like protein 2 chromodomain (domain or fragment)” showed a fold tighter than the H3K9me3 peptide of 100 fold. For the same substance, the Kd in assay [4] is 3600 nM.

Values taken from article PMC7160673, “A Degenerate Peptide Library Approach to Reveal Sequence Determinants of Methyllysine-Driven Protein Interactions” (Frontiers in Cell and Developmental Biology, 2020).
